One molecule from patent publication US20140220033A1, “Administration of an Anti-Activin-A Compound to a Subject” (Santa Maria Biotherapeutics, Inc., priority 2013, published 2014) can be followed below.

One assay concerns osteopontin. Put plainly: Western blot of osteopontin in ovarian tumors of inh-KO mice. To be noted: FIG. 8D. Type of assay: in vivo, mouse. The protocol: (§1) 12-week-old female and 8-week-old male inh-KO mice with fully established ovarian or testicular tumors received a single injection of PBS or sActRIIB (30 mg/kg, SC). As a control, age-matched wild-type littermates received a single injection of PBS. Ovarian and testicular organ weights were determined by necropsy 14 days after the injection.
(§2) Protein extracts were prepared from cell cultures or tissues in T-PER tissue protein extraction reagent (Pierce) containing a mixture of protease inhibitors (Roche). A pool of 50 μg total protein for each group containing equal amounts of protein extract isolated from individual animals was separated by NuPAGE 4-12% Bis-Tris gel (Invitrogen) and transferred to PVDF. The membranes were probed with primary antibodies against total Smad2, p-Smad2 or E-cadherin (1:1000; Cell Signaling), endoglin, osteopontin (1:500; R&D Systems), IGFBP-1, IGFBP-2 (1:500; Abcam) followed by HRP-conjugated secondary antibody (1:2000; Cell Signaling). The membranes were stripped and re-probed with antibody against α-tubulin (1:1000; Cell Signaling).
On the technique in general: Immunoblotting shows a protein as a band on a membrane.

Assay [1] deals with Ang-1. The experiment in a line: Ang-1 immunostaining in TOV-21G xenograft tumor sections. Type of assay: in vivo, mouse. To be noted: treated vs untreated sections (strong immunostaining); FIG. 15A. Here is the method: (§3) 5×10^6 TOV-21G ovarian cancer cells were implanted subcutaneously into individual female athymic nu/nu mice (Harlan). Treatment was initiated at day 12 after tumor implantation, when the average tumor volume reached approximately 150 mm^3. The mice received PBS, sActRIIB (30 mg/kg, SC, 1×/week) or activin-A antibody (30 mg/kg, SC, 2×/week). In a separate chemotherapy combination experiment, the mice were treated with PBS, sActRIIB (10 mg/kg, SC, 1×/week), 5-FU (50 mg/kg, IP, 3 cycles, 4 daily injections per cycle) or sActRIIB and 5-FU combination at the same doses above.
(§4) Zinc-formalin fixed paraffin tumor tissue sections of 4 μm in thickness were prepared. The sections were subjected to antigen retrieval by microwave 3 min in Unmask solution (Vector H-3300) followed by incubation in 10 μg/ml Proteinase-K for 20 min and in 1% H2O2 in dH2O for 10 min at room temperature. The sections were further incubated in 0.1% Tween-20 in PBS for 3 min to permeabilize the cell membrane and in goat serum for 30 min to block non-specific binding. The sections were then incubated at room temperature with specific primary antibody for 3 hours followed by incubation in biotinylated or fluorescently labeled secondary antibody. […] The immunostained tissue sections were analyzed and photographed using a Nikon Eclipse 90i microscope equipped with DS-Ril camera. […]

The next assay deals with TOV-21G cells. The experiment in a line: In vitro proliferation assay of TOV-21G cells (IncuCyte). Type of assay: cell-based, human. Conditions: increasing concentrations; FIG. 14. Here is the method: In vitro growth rates of TOV-21G cancer cells were analyzed by using a real-time live cell imaging system (IncuCyte) following the manufacturer's recommended protocol.
The test system of assay [2] is testicular tumors in inh-KO mice. The experiment in a line: Testicular tumor mass in inh-KO mice (necropsy). Type of assay: in vivo, mouse. Conditions: 8-week-old male inh-KO mice; single dose 30 mg/kg SC; necropsy 14 days after injection; FIG. 4A, 4B. Here is the method:
as §1

A further assay concerns E-cadherin. The experiment in a line: E-cadherin in ovarian tumors of inh-KO mice (Western blot, immunostaining). Type of assay: in vivo, mouse. Here is the method: as §1, §2
Zinc-formalin fixed paraffin tumor tissue sections of 4 μm in thickness were prepared. […] The immunostained tissue sections were analyzed and photographed using a Nikon Eclipse 90i microscope equipped with DS-Ril camera. […]

In assay [3] the test system is testicular tumors in inh-KO mice. Put plainly: Light microscopy (H&E) of testes of inh-KO mice. Type of assay: in vivo, mouse. To be noted: male inh-KO mice; FIG. 7B. Here is the method: as §1
Testes and ovaries from inh-KO mice were fixed with Zinc-formalin. Tissue sections were subjected to H&E staining and then examined with a Nikon Eclipse 90i microscope.

Another assay concerns CD31. Put plainly: CD31 immunostaining in TOV-21G xenograft tumor sections. Type of assay: in vivo, mouse. To be noted: FIG. 15B. The protocol:
as §3, §4

A further assay deals with Ang-2 mRNA. The experiment in a line: Northern blot of Ang-2 mRNA in gonadal tumors of inh-KO mice. Type of assay: in vivo, mouse. Conditions: ovarian and testicular tumors of inh-KO mice; FIG. 8C. Here is the method: as §1
(§5) Total RNA was isolated from individual tissue samples after homogenization in Trizol (Invitrogen). A pool of 10 μg RNA for each group containing equal amounts of total RNA isolated from individual animals was subjected to Northern blot analysis. The northern probes used for βA and Ang-2 were generated by using RT-PCR (Phusion, Biolabs). βA primer set: 5′-CCCTTGCTTTGGCTGAGAGGA-3′ and 5′-TC ACA GGT CGT CGT AGG TCG-3′; Ang-2 primer set: 5′-TGT GCC GGG GAG AAG AG and 5′-TACAGTAGTGGGTTGAGGTTC-3′. To normalize the expression, northern blot membranes were re-probed with β-actin.

Another assay has as its system caspase-3. The experiment in a line: Active caspase-3 immunostaining in gonadal tumor sections of inh-KO mice. It is filed as in vivo, mouse. Conditions: ovarian and testicular tissue sections of inh-KO mice, regions of residual tumor cells; FIG. 9. The protocol: as §1
(§6) Zinc-formalin fixed paraffin tumor tissue sections of 4 μm in thickness were prepared. The sections were subjected to antigen retrieval by microwave 3 min in Unmask solution (Vector H-3300) followed by incubation in 10 μg/ml Proteinase-K for 20 min and in 1% H2O2 in dH2O for 10 min at room temperature. The sections were further incubated in 0.1% Tween-20 in PBS for 3 min to permeabilize the cell membrane and in goat serum for 30 min to block non-specific binding. The sections were then incubated at room temperature with specific primary antibody for 3 hours followed by incubation in biotinylated or fluorescently labeled secondary antibody. Substrate developed in Vector SG kit (SK-4700) or DAB and nuclear-counterstained in Vector Fast Red (H-3403) or in hematoxylin. The immunostained tissue sections were analyzed and photographed using a Nikon Eclipse 90i microscope equipped with DS-Ril camera. […]

Assay [4] deals with activin-A (βA) mRNA. The experiment in a line: Northern blot of activin-A (βA) mRNA in tumors of inh-KO mice. It is filed as in vivo, mouse. Conditions: increase over WT controls, FIG. 5A. The protocol: as §1, §5
Assay [5] concerns Ang-1. The experiment in a line: Ang-1 immunostaining in gonadal tumor sections of inh-KO mice. Conditions: ovarian and testicular tumors of inh-KO mice; FIG. 8B. It is filed as in vivo, mouse. Here is the method: as §1, §6
For another assay, the system named is VEGF transcripts. Put plainly: VEGF mRNA in cell cultures (real-time RT-PCR). It is filed as cell-based, human, bovine. To be noted: TOV-21G, BAEC, MRC-5, CCD-Lu, U937 cultures treated with recombinant activin-A, without or with sActRIIB; FIG. 16A. A general note: Quantitative PCR measures a nucleic acid by following its amplification.
Assay [6] concerns activin-A (βA) mRNA. Put plainly: Endogenous activin-A (βA) mRNA in cell cultures (real-time RT-PCR). Type of assay: cell-based, human, bovine. To be noted: TOV21G, BAEC, MRC-5, CCD-Lu, U937 and THP-1 cultures treated with recombinant activin-A, without or with sActRIIB; FIG. 18.

B1: sActRIIB: extracellular domain of human activin type-2B receptor fused to IgG2 Fc, expressed in CHO cells; sequence in the 26th table (protein)
chain: ETRWCIYYNANWELERTNQGLERCEGEQDKRLHCYASWRNSSGTIELVKKGCWLDDFNCYDRQECVATEENPQVYFCCCEGNFCNERFTHLPEAGGPEVTYEPPPTAPTGGGGSVECPPCPAPPVAGPSVFLFPPKPKDTLMISRTPEVTCVVVDVSHEDPEVQFNWYVDGVEVHNAKTKPREEQFNSTFRVVSVLTVVHQDWLNGKEYKCKVSNKGLPAPIEKTISKTKGQPREPQVYTLPPSREEMTKNQVSLTCLVKGFYPSDIAVEWESNGQPENNYKTTPPMLDSDGSFFLYSKLTVDKSRWQQGNVFSCSVMHEALHNHYTQKSLSLSPGK
modifications: left off: a dimerising Fc or GST
Regarding B1, in the assay on osteopontin, the “osteopontin induction (Western blot)” value is recorded as “abolished completely”. The “Ang-1 immunostaining in TOV-21G tumor sections” value in the assay with Ang-1 [1] is “virtually none”. In the assay with TOV-21G cells, the “TOV-21G cell proliferation in vitro” value is listed as “no direct effect”. Also, the testicular tumor mass entry in assay [2] is given as “dramatic regression of testicular tumor masses to the WT control levels”. The “E-cadherin immunoreactivity in ovarian sections” value in the assay with E-cadherin (FIG. 6B) was “reappearance of distinctive E-cadherin immunoreactivity”. In addition, the “E-cadherin protein in ovarian tumors (Western blot)” value in the assay on E-cadherin (single injection, FIG. 6A) was “dramatically restored the lost E-cadherin”. Moreover, the “testicular morphology (light microscopy)” value in [3] is “the testes were normal in size and filled with seminiferous tubules”. Moreover, the “CD31 immunostaining (newly formed microvessels) in TOV-21G tumor sections” value in the assay on CD31 was “lack of such new microvessels”. For the same molecule, the “Ang-2 mRNA expression (Northern blot)” value in the assay on Ang-2 mRNA is given as “inhibited its overexpression”. Besides, in the assay on caspase-3, the “active caspase-3 immunostaining” value is listed as “strong immunostaining of active caspase-3”. Also, the “βA transcripts in the tumors (Northern blot)” value in the assay with activin-A (βA) mRNA [4] was “completely blocked”. Further, the “Ang-1 immunoreactivity in tumor sections” value in the assay on Ang-1 [5] was “completely abolished the VEGF and Ang-1 inductions”. Further, the “levels of VEGF transcripts” value in the assay with VEGF transcripts is listed as “prevented this induction”. Also, the “endogenous βA mRNA expression” value in the assay with activin-A (βA) mRNA [6] was “blocked completely”.
